This note sets out measurements from patent publication US20050256058A1.

Common to all, as to assay: cell-based or functional assay
The target in test [1] is T1, Caspase-7 (UniProt P55210).
T1 sequence (looked up): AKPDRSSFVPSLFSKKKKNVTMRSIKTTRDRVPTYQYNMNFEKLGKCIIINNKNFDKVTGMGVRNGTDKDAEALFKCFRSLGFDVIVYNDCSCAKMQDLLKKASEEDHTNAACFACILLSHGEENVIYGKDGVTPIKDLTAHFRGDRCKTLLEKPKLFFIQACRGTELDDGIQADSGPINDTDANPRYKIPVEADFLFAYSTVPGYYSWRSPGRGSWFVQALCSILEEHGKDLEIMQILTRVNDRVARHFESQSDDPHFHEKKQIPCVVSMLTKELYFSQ

Test [2] has as its target Caspase-8 (UniProt Q14790).
Test [3] addresses T2, Caspase-6 (UniProt P55212).
T2 sequence (looked up): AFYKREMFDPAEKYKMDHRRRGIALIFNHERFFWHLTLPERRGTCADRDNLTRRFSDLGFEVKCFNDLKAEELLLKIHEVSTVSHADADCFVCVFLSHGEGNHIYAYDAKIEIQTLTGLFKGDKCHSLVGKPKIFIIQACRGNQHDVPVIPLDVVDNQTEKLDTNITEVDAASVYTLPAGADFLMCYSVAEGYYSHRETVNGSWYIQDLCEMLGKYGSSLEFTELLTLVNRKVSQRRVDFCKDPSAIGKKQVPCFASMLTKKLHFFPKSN

Test [4] has as its target T3, Caspase-2 (UniProt P42575).
T3 sequence (looked up): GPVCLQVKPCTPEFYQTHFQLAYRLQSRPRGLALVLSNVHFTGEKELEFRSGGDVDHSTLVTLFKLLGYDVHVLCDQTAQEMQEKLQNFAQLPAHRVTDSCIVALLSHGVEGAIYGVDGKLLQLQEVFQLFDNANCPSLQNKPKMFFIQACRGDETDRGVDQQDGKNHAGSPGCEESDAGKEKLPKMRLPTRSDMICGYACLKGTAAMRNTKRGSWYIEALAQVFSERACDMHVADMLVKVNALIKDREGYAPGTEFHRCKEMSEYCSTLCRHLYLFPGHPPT

Test [5] deals with T4, Caspase-3 (UniProt P42574).
T4 sequence (looked up): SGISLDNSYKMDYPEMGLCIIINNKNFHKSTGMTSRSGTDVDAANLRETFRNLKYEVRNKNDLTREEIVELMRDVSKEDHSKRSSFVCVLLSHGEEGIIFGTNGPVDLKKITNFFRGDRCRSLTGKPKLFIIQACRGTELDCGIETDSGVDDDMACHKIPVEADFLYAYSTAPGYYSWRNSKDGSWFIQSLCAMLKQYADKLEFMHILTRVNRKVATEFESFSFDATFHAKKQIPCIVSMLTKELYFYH

The target in test [6] is T5, Caspase-10 (UniProt Q92851).
T5 sequence (looked up): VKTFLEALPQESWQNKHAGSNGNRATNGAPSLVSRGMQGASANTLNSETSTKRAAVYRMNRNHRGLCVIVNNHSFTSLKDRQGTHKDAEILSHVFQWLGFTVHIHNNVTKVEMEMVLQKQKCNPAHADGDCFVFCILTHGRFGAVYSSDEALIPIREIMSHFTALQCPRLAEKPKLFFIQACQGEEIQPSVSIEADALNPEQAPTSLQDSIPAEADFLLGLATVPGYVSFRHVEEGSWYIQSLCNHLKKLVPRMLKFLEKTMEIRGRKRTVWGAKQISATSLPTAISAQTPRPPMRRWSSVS

For test [7], the target named is T6, Caspase-8, Q14790.
T6 chain: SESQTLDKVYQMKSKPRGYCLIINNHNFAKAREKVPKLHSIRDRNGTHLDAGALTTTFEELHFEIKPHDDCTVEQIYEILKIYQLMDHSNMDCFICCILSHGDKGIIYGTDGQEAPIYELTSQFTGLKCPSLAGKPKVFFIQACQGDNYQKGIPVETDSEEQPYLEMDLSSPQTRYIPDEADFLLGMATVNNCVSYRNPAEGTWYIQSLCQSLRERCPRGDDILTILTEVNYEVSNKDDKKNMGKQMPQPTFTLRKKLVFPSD

The target of test [8] is T7, Caspase-7, P55210.
T7 chain: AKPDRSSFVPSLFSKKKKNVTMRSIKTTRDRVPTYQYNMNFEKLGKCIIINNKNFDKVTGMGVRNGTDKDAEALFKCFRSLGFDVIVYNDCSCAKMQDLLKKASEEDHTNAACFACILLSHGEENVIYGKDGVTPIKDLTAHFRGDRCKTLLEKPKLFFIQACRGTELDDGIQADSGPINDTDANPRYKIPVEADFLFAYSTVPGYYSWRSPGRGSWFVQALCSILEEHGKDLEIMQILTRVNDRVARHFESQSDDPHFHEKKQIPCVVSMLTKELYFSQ

Test [9] has as its target T8, Caspase-10, Q92851.
T8 chain: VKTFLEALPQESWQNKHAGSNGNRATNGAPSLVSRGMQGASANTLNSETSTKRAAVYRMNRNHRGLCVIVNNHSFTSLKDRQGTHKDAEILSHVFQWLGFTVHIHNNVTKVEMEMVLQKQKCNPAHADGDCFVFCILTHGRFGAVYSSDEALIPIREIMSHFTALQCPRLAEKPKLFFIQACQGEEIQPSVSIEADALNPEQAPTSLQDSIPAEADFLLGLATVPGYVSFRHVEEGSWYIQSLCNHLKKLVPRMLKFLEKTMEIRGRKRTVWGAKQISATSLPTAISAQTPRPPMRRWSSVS

The target in test [10] is T9, Caspase-6, P55212.
T9 chain: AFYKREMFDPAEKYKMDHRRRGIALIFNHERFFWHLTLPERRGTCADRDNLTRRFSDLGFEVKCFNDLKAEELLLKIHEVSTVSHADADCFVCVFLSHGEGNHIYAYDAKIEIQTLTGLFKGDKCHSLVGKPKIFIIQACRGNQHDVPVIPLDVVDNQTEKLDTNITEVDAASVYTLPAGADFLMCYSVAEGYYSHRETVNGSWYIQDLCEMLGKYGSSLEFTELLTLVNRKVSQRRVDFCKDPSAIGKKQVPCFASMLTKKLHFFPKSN

Test [11] addresses T10, Caspase-3, P42574.
T10 chain: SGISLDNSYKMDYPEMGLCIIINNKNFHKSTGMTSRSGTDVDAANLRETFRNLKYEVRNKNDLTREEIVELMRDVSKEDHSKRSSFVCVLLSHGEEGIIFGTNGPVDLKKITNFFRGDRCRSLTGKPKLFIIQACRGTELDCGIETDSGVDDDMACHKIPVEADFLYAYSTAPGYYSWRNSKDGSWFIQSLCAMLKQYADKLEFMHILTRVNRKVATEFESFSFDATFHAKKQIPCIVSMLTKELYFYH

Test [12] deals with Caspase-9 (UniProt P55211).
Sequence of Caspase-9 (P55211 whole entry): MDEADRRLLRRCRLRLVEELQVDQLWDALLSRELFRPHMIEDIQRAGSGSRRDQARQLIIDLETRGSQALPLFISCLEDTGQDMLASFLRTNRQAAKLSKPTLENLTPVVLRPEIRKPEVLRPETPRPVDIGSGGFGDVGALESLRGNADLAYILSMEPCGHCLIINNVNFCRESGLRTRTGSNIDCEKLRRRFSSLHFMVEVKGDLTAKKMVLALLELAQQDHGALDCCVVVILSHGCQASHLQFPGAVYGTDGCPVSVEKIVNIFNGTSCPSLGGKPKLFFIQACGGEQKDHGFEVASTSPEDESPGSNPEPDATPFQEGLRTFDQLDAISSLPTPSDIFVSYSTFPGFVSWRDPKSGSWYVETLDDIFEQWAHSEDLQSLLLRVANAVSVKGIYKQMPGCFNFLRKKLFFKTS

Numbered stars: 1 amine (or outer) side, 2 acyl side, 3 side chain; on linkers, the order of the positions; unused ones are H or OH. Square brackets hold non-standard residues; d marks the D form. * marks the point of attachment. CH═CH‑CON(CH2Ph)2 = O=C(/C=C/*)N(Cc1ccccc1)Cc1ccccc1; AAsp = aza-Asp, O=C(N(CC(=O)[*:3])N[*:1])[*:2]; CH═CH‑CON(CH3)CH2Ph = CN(Cc1ccccc1)C(=O)/C=C/*; CH═CH‑COOCH2Ph = O=C(/C=C/*)OCc1ccccc1; Cbz = O=C(OCc1ccccc1)*

B1: Cbz-Ile-Glu-Thr-AAsp-CH═CH-COOCH2Ph (peptide)
peptide: Cbz-IET[AAsp]-{CH═CH‑COOCH2Ph}
SMILES: CC[C@H](C)[C@H](NC(=O)OCc1ccccc1)C(=O)N[C@@H](CCC(=O)O)C(=O)N[C@H](C(=O)NN(CC(=O)O)C(=O)/C=C/C(=O)OCc1ccccc1)[C@@H](C)O
B1: the k2 was determined as 660 M⁻¹ s⁻¹ in test [1]; 148000 M⁻¹ s⁻¹ in [2]; 23400 M⁻¹ s⁻¹ in [3]; 110 M⁻¹ s⁻¹ in test [4]; 2300 M⁻¹ s⁻¹ in [5]; 15200 M⁻¹ s⁻¹ in test [6].

DEVD (modifications not checked) [Cbz-Asp-Glu-Val-AAsp-CH═CH-COOCH2Ph]: the k2 in test [7] stood at 121000 M⁻¹ s⁻¹; in [8], 114000 M⁻¹ s⁻¹; in test [9] it was 28300 M⁻¹ s⁻¹; in [10], 8470 M⁻¹ s⁻¹; in test [11], 1.7e+06 M⁻¹ s⁻¹.

Regarding Cbz-IET[AAsp]-{CH═CH‑CONHPh} [Cbz-Ile-Glu-Thr-AAsp-CH═CH-CONHPh], the k2 turned out to be 920 M⁻¹ s⁻¹ in [1]; 245000 M⁻¹ s⁻¹ in [2]; 99200 M⁻¹ s⁻¹ in [3]; 365 M⁻¹ s⁻¹ in test [4]; 7030 M⁻¹ s⁻¹ in test [5]; 940 M⁻¹ s⁻¹ in [12]. For the same molecule, the k2 in test [6] was 9210 M⁻¹ s⁻¹.

B2: Cbz-Ile-Glu-Thr-AAsp-CH═CH-CON(CH2Ph)2 (peptide)
peptide: Cbz-IET[AAsp]-{CH═CH‑CON(CH2Ph)2}
SMILES: CC[C@H](C)[C@H](NC(=O)OCc1ccccc1)C(=O)N[C@@H](CCC(=O)O)C(=O)N[C@H](C(=O)NN(CC(=O)O)C(=O)/C=C/C(=O)N(Cc1ccccc1)Cc1ccccc1)[C@@H](C)O
Take B2: the k2 is 1140 M⁻¹ s⁻¹ in test [1]; 39500 M⁻¹ s⁻¹ in test [2]; 83900 M⁻¹ s⁻¹ in [3]; 76 M⁻¹ s⁻¹ in [4]; 9570 M⁻¹ s⁻¹ in test [5]; 1930 M⁻¹ s⁻¹ in test [12]. Moreover, in test [6], the k2 came out at 7930 M⁻¹ s⁻¹.

B3: Cbz-Ile-Glu-Thr-AAsp-CH═CH-CON(CH3)CH2Ph (peptide)
peptide: Cbz-IET[AAsp]-{CH═CH‑CON(CH3)CH2Ph}
SMILES: CC[C@H](C)[C@H](NC(=O)OCc1ccccc1)C(=O)N[C@@H](CCC(=O)O)C(=O)N[C@H](C(=O)NN(CC(=O)O)C(=O)/C=C/C(=O)N(C)Cc1ccccc1)[C@@H](C)O
As for B3, the k2 came to 390 M⁻¹ s⁻¹ in [1]; 59700 M⁻¹ s⁻¹ in [2]; 45900 M⁻¹ s⁻¹ in test [3]; 95 M⁻¹ s⁻¹ in test [4]; 6000 M⁻¹ s⁻¹ in [5]; 845 M⁻¹ s⁻¹ in test [12]. Further, the k2 in test [6] turned out to be 8500 M⁻¹ s⁻¹.
